Source: the supplement of paper PMC10724198
± gives the standard deviation of the averaged measurements.

How the values were obtained:
Saccharomyces cerevisiae [1] = assay: protein stability index of tFT-peptide fusion (C-terminal peptide) (PSI (0-1 scale)); higher = more stable (slower turnover); conditions: genetic background: wild type; temperature: 30 C
Saccharomyces cerevisiae [2] = assay: as above
Description: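 MPS profiling in S. cerevisiae of the tFT-X12 degron library: putative degron peptides plus stable controls, 12 aa, fused to the C-terminus of a sfGFP-mCherry timer. Cells are FACS-sorted into 8 mCherry/sfGFP bins and deep-sequenced. PSI runs from 0 (unstable) to 1 (stable). Backgrounds are wild type, das1Δ and doa10Δ at 30 °C, and wild type, das1Δ, cdc34-1 and cdc53-1 at 37 °C; 2-3 technical replicates each.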

[3] = genetic background: cdc34-1, temperature: 37 C
[4] = genetic background: cdc53-1, temperature: 37 C
[5] = genetic background: das1 deletion, temperature: 30 C
[6] = genetic background: das1 deletion, temperature: 37 C
[7] = genetic background: doa10 deletion, temperature: 30 C
[8] = genetic background: wild type, temperature: 30 C
[9] = genetic background: wild type, temperature: 37 C
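Note: PSI is a weighted mean of sequencing reads over stability bins, variants kept only with over 10 reads, mCherry proximal and sfGFP distal, peptide attached via GGGS linker.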

Row | Sequence | protein stability index (Saccharomyces cerevisiae [1]) | protein stability index (Saccharomyces cerevisiae [2]; [3]) | protein stability index (Saccharomyces cerevisiae [2]; [4]) | protein stability index (Saccharomyces cerevisiae [2]; [5]) | protein stability index (Saccharomyces cerevisiae [2]; [6]) | protein stability index (Saccharomyces cerevisiae [2]; [7]) | protein stability index (Saccharomyces cerevisiae [2]; [8]) | protein stability index (Saccharomyces cerevisiae [2]; [9])
1 | CPALYMPPPVLV | 0.2594 ± 0.0017 | 0.114 ± 0.036 | 0.13 ± 0.012 | 0.191 ± 0.026 | 0.238 ± 0.01 | 0.14 ± 0.03 | 0.182 ± 0.015 | 0.215 ± 0.0041
2 | CPPPPPSLLLLC | 0.223 ± 0.0038 | 0.531 ± 0.025 | 0.6762 ± 0.0035 | 0.591 ± 0.012 | 0.666 ± 0.011 | 0.168 ± 0.0086 | 0.19 ± 0.013 | 0.29753 ± 0.00015
3 | CRLCVFGVWFCG | 0.499 ± 0.033 | 0.532 ± 0.033 | 0.535 ± 0.012 | 0.443 ± 0.018 | 0.5751 ± 0.0034 | 0.448 ± 0.037 | 0.412 ± 0.022 | 0.5405 ± 0.0014
4 | CSPAFRPIVFVL | 0.225 ± 0.013 | 0.2771 ± 0.00097 | 0.2732 ± 0.00067 | 0.301 ± 0.026 | 0.407 ± 0.013 | 0.1802 ± 0.00032 | 0.163 ± 0.016 | 0.176 ± 0.0079
5 | CSVPLGVFAIVV | 0.48 ± 0.019 | 0.463 ± 0.0057 | 0.471 ± 0.032 | 0.382 ± 0.028 | 0.514 ± 0.0019 | 0.347 ± 0.0035 | 0.365 ± 0.038 | 0.4894 ± 0.0029
6 | CSYPTLSMYSTT | 0.74 ± 0.072 | 0.673 ± 0.068 | 0.766 ± 0.038 | 0.655 ± 0.013 | 0.718 ± 0.017 | 0.665 ± 0.007 | 0.645 ± 0.013 | 0.71 ± 0.011
7 | CTFFCICVFFLL | 0.392 ± 0.042 | 0.349 ± 0.019 | 0.413 ± 0.025 | 0.339 ± 0.027 | 0.463 ± 0.0064 | 0.267 ± 0.012 | 0.281 ± 0.022 | 0.4 ± 0.0063
8 | CTLVVGLFVLVV | 0.362 ± 0.0094 | 0.168 ± 0.02 | 0.315 ± 0.022 | 0.209 ± 0.034 | 0.375 ± 0.024 | 0.168 ± 0.0065 | 0.216 ± 0.028 | 0.322 ± 0.0064
9 | CVGLYCLFVLLG | 0.248 ± 0.004 | 0.289 ± 0.0046 | 0.357 ± 0.0088 | 0.273 ± 0.034 | 0.449 ± 0.019 | 0.172 ± 0.0049 | 0.161 ± 0.018 | 0.278 ± 0.0049
10 | CVISLVTAVRLF | 0.4644 ± 0.0021 | 0.514 ± 0.023 | 0.5526 ± 0.0029 | 0.453 ± 0.022 | 0.589 ± 0.019 | 0.405 ± 0.028 | 0.426 ± 0.026 | 0.544 ± 0.018
11 | DDVRFLLWGLCC | 0.324 ± 0.027 | 0.48 ± 0.022 | 0.459 ± 0.018 | 0.398 ± 0.024 | 0.5595 ± 0.0051 | 0.183 ± 0.0027 | 0.218 ± 0.019 | 0.3644 ± 0.0027
12 | DQPLWIGVLAYC | 0.455 ± 0.025 | 0.434 ± 0.04 | 0.4712 ± 0.00085 | 0.31 ± 0.04 | 0.502 ± 0.011 | 0.272 ± 0.0047 | 0.325 ± 0.013 | 0.487 ± 0.022
13 | DRRYIISLIYIL | 0.113 ± 0.059 | 0.32 ± 0.022 | 0.5045 ± 0.0033 | 0.369 ± 0.023 | 0.576 ± 0.035 | 0.0892 ± 0.014 | 0.0874 ± 0.015 | 0.105 ± 0.0088
14 | DSGMLDFLLMAW | 0.598 ± 0.16 | 0.541 ± 0.039 | 0.545 ± 0.015 | 0.432 ± 0.035 | 0.57175 ± 0.00049 | 0.421 ± 0.011 | 0.451 ± 0.013 | 0.53 ± 0.0056
15 | DSTLLYRPPSPA | 0.7089 ± 0.0008 | 0.672 ± 0.032 | 0.713 ± 0.02 | 0.646 ± 0.019 | 0.7252 ± 0.0017 | 0.651 ± 0.021 | 0.637 ± 0.02 | 0.683 ± 0.022
16 | DVVVIFGILCYC | 0.267 ± 0.013 | 0.0711 ± 0.0034 | 0.16 ± 0.0049 | 0.156 ± 0.045 | 0.3173 ± 0.0014 | 0.125 ± 0.014 | 0.15 ± 0.032 | 0.263 ± 0.0032
17 | DYRCWCAILVSS | 0.2611 ± 0.00049 | 0.162 ± 0.0075 | 0.187 ± 0.0085 | 0.207 ± 0.029 | 0.3345 ± 0.0016 | 0.146 ± 0.013 | 0.172 ± 0.032 | 0.246 ± 0.013
18 | DYSVIPSLALLP | 0.218 ± 0.021 | 0.692 ± 0.013 | 0.73118 ± 3.3e-05 | 0.657 ± 0.028 | 0.733 ± 0.015 | 0.669 ± 0.022 | 0.673 ± 0.0088 | 0.714 ± 0.02
19 | ECLRLTTKKKIN | 0.173 ± 0.011 | 0.581 ± 0.079 | 0.733 ± 0.069 | 0.657 ± 0.055 | 0.704 ± 0.032 | 0.133 ± 0.0031 | 0.146 ± 0.039 | 0.197 ± 0.088
20 | EDRKRNKERRWT | 0.4256 ± 0.0024 | 0.679 ± 0.024 | 0.702 ± 0.013 | 0.642 ± 0.015 | 0.716 ± 0.0076 | 0.305 ± 0.0042 | 0.303 ± 0.027 | 0.57 ± 0.01
21 | EFWWPFDRRGVI | 0.748 ± 0.011 | 0.76 ± 0.037 | 0.807 ± 0.011 | 0.7244 ± 0.0059 | 0.83 ± 0.015 | 0.721 ± 0.029 | 0.7117 ± 0.0043 | 0.822 ± 0.012
22 | EKKRERQKGEME | 0.579 ± 0.12 | 0.656 ± 0.055 | 0.7542 ± 0.0053 | 0.6109 ± 0.0056 | 0.72 ± 0.027 | 0.627 ± 0.026 | 0.635 ± 0.014 | 0.717 ± 0.012
23 | ETQKEKRENAKP | 0.713 ± 0.0091 | 0.649 ± 0.028 | 0.70222 ± 0.00044 | 0.646 ± 0.032 | 0.71 ± 0.035 | 0.6492 ± 0.0039 | 0.623 ± 0.016 | 0.677 ± 0.024
24 | EVGFHRRWVALS | 0.189 ± 0.0082 | 0.612 ± 0.052 | 0.7235 ± 0.007 | 0.65 ± 0.015 | 0.737 ± 0.019 | 0.114 ± 0.02 | 0.141 ± 0.016 | 0.275 ± 0.053
25 | EWGLGEIVVKVA | 0.259 ± 0.057 | 0.563 ± 0.025 | 0.654 ± 0.013 | 0.534 ± 0.011 | 0.684 ± 0.015 | 0.138 ± 0.0032 | 0.162 ± 0.013 | 0.2153 ± 0.0017
26 | FAFPTPPPLLFD | 0.751 ± 0.027 | 0.68 ± 0.047 | 0.7511 ± 0.00095 | 0.693 ± 0.035 | 0.735 ± 0.0083 | 0.667 ± 0.0073 | 0.676 ± 0.0095 | 0.736 ± 0.013
27 | FCGWLGVYLVKG | 0.494 ± 0.076 | 0.5909 ± 0.001 | 0.6581 ± 0.00083 | 0.484 ± 0.026 | 0.656 ± 0.0023 | 0.481 ± 0.035 | 0.49 ± 0.015 | 0.668 ± 0.062
28 | FCSFSWFLFLRS | 0.405 ± 0.034 | 0.211 ± 0.0051 | 0.123 ± 0.023 | 0.329 ± 0.02 | 0.359 ± 0.0085 | 0.599 ± 0.01 | 0.337 ± 0.016 | 0.312 ± 0.022
29 | FCVLLFCAVSDL | 0.317 ± 0.03 | 0.289 ± 0.032 | 0.383 ± 0.03 | 0.239 ± 0.036 | 0.4433 ± 0.0013 | 0.212 ± 0.0092 | 0.24 ± 0.036 | 0.398 ± 0.0074
30 | FCVVFFLSLVFL | 0.495 ± 0.046 | 0.457 ± 0.01 | 0.491 ± 0.03 | 0.391 ± 0.027 | 0.511 ± 0.013 | 0.4225 ± 0.0026 | 0.386 ± 0.0062 | 0.49 ± 0.0029
